Measured values from the supplement of paper PMC10065799, “High-throughput profiling of sequence recognition by tyrosine kinases and SH2 domains using bacterial peptide display” (eLife, 2023).
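Also: 11-residue human phosphosite peptides and single-mutation variants displayed on the E. coli surface, counted by deep sequencing, each peptide's frequency after selection divided by its frequency in the unselected input library; frequency after pTyr selection over input frequency; kinase dosed for 20-30% of maximal phosphorylation in three min.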

The sequences below were run on c-Abl (mouse) (assay: phosphorylation enrichment, bacterial display (enrichment ratio); higher = better substrate or ligand; peptides without Tyr show the background).
For ALKKPYGVLFK [RPF2_Y59_YF], the phosphorylation enrichment was 0.712. Sequence FMFKVYSDPQP [FGFR1_Y280_C277Y_YF] has a phosphorylation enrichment of 1.16. In the case of ETKAFYPEEIS [HSPA1A_Y115], the phosphorylation enrichment is reported as 0.584. Work on SLNEGYAKDFD [FBP1_Y216_R218K] yielded a phosphorylation enrichment of 0.589. AACQHYGVHTC [NR4A2_Y275_R278H] showed a phosphorylation enrichment of 0.534. SVMAEYGLFAA [VSX2_Y219_G223A_YF] gave a phosphorylation enrichment of 0.675. CLAKMYYSAVE [CP_Y539_D544E] gave a phosphorylation enrichment of 0.651. For LLREWYVQDPF [SIX3_Y225_L226V_YF], the phosphorylation enrichment was 0.528. TRLAQYDSNSK [BMX_Y216_S212R] was tested, and the phosphorylation enrichment was 0.776. Work on AAVPAYDKIRV [STXBP2_Y401] yielded a phosphorylation enrichment of 0.569. In the case of SVTCTYSRALN [TP53_Y126_P128R], the phosphorylation enrichment is reported as 0.916. Work on VASSLYDILAR [GLB1_Y294] yielded a phosphorylation enrichment of 0.763. With VRTGIYHGGKP [PIK3CA_Y361_E365K] the phosphorylation enrichment was 0.501. With DEEEEYEFMNR [ERBB3_Y1197_D1194E_YF] the phosphorylation enrichment was 1.1. Work on VIEFSYTSADG [DHCR7_Y382_C380Y_YF] yielded a phosphorylation enrichment of 0.608. In the case of RSACTYLAPHL [PLK3_Y615_S618P], the phosphorylation enrichment is reported as 6.67. Work on EEGNPSYSSAR [MCCC2_Y520_Y520S] yielded a phosphorylation enrichment of 1.25. Sequence HAVVDYMRRQK [ATM_Y1915_L1910H] has a phosphorylation enrichment of 0.595. YVSSFYHAFSG [ACTN4_Y265] showed a phosphorylation enrichment of 1.28. KPFRVYCDMNT [FGB_Y269_YF] showed a phosphorylation enrichment of 0.886. Work on RGRSTCFWPRP [GAGE12J_Y9_Y9C_YF] yielded a phosphorylation enrichment of 1.04. IAINKYGVSLI [MYO7A_Y2136] gave a phosphorylation enrichment of 0.744. In the case of DLAAQYTTVGR [SGSH_Y240], the phosphorylation enrichment is reported as 0.542. Sequence SVVVPYEPPEI [TP53_Y220_V225I] has a phosphorylation enrichment of 0.8. With MTFQNYRQALF [FAM20C_Y279_G280R] the phosphorylation enrichment was 0.657. In the case of RRERPYGGGGG [FUS_Y526], the phosphorylation enrichment is reported as 0.284. CDFKKYGKGLR [ZNF445_Y433_Y428C_YF] showed a phosphorylation enrichment of 0.64. Sequence IFQASYFRRGD [LTK_Y676_R673Q_YF] has a phosphorylation enrichment of 0.789. In the case of MDYRSYPHEYG [RBM10_Y44_R46H], the phosphorylation enrichment is reported as 0.561. MKGEYYRYLAE [YWHAG_Y131_D129E] gave a phosphorylation enrichment of 0.82. CFTRKYTLPPG [HSPB1_Y142] gave a phosphorylation enrichment of 0.678. YCRHNYGVGES [HLA-DRB1_Y112_V115G] was tested, and the phosphorylation enrichment was 0.602. HVEAVYIDIAD [PITPNA_Y140] showed a phosphorylation enrichment of 0.831.

Each sequence was assayed on AncSZ in the same assay as above.
In the case of ALKKPYGVLFK [RPF2_Y59_YF], the phosphorylation enrichment is reported as 0.765. Work on FMFKVYSDPQP [FGFR1_Y280_C277Y_YF] yielded a phosphorylation enrichment of 1.54. In the case of ETKAFYPEEIS [HSPA1A_Y115], the phosphorylation enrichment is reported as 1.08. SLNEGYAKDFD [FBP1_Y216_R218K] showed a phosphorylation enrichment of 1.02. Sequence AACQHYGVHTC [NR4A2_Y275_R278H] has a phosphorylation enrichment of 0.624. In the case of SVMAEYGLFAA [VSX2_Y219_G223A_YF], the phosphorylation enrichment is reported as 0.822. For CLAKMYYSAVE [CP_Y539_D544E], the phosphorylation enrichment was 1.04. Sequence LLREWYVQDPF [SIX3_Y225_L226V_YF] has a phosphorylation enrichment of 0.961. TRLAQYDSNSK [BMX_Y216_S212R] showed a phosphorylation enrichment of 0.713. AAVPAYDKIRV [STXBP2_Y401] gave a phosphorylation enrichment of 0.64. SVTCTYSRALN [TP53_Y126_P128R] gave a phosphorylation enrichment of 1.09. With VASSLYDILAR [GLB1_Y294] the phosphorylation enrichment was 1.02. VRTGIYHGGKP [PIK3CA_Y361_E365K] gave a phosphorylation enrichment of 0.451. Sequence DEEEEYEFMNR [ERBB3_Y1197_D1194E_YF] has a phosphorylation enrichment of 1.16. For VIEFSYTSADG [DHCR7_Y382_C380Y_YF], the phosphorylation enrichment was 0.944. In the case of RSACTYLAPHL [PLK3_Y615_S618P], the phosphorylation enrichment is reported as 2.67. Sequence EEGNPSYSSAR [MCCC2_Y520_Y520S] has a phosphorylation enrichment of 0.962. Sequence HAVVDYMRRQK [ATM_Y1915_L1910H] has a phosphorylation enrichment of 1.16. In the case of YVSSFYHAFSG [ACTN4_Y265], the phosphorylation enrichment is reported as 1.04. KPFRVYCDMNT [FGB_Y269_YF] showed a phosphorylation enrichment of 1.22. In the case of RGRSTCFWPRP [GAGE12J_Y9_Y9C_YF], the phosphorylation enrichment is reported as 0.71. With IAINKYGVSLI [MYO7A_Y2136] the phosphorylation enrichment was 0.837. Sequence DLAAQYTTVGR [SGSH_Y240] has a phosphorylation enrichment of 0.701. SVVVPYEPPEI [TP53_Y220_V225I] was tested, and the phosphorylation enrichment was 1.15. MTFQNYRQALF [FAM20C_Y279_G280R] was tested, and the phosphorylation enrichment was 0.909. RRERPYGGGGG [FUS_Y526] gave a phosphorylation enrichment of 0.563. Sequence CDFKKYGKGLR [ZNF445_Y433_Y428C_YF] has a phosphorylation enrichment of 0.647. In the case of IFQASYFRRGD [LTK_Y676_R673Q_YF], the phosphorylation enrichment is reported as 1.05. Sequence MDYRSYPHEYG [RBM10_Y44_R46H] has a phosphorylation enrichment of 0.832. MKGEYYRYLAE [YWHAG_Y131_D129E] gave a phosphorylation enrichment of 1.12. CFTRKYTLPPG [HSPB1_Y142] showed a phosphorylation enrichment of 0.763. Work on YCRHNYGVGES [HLA-DRB1_Y112_V115G] yielded a phosphorylation enrichment of 0.686. For HVEAVYIDIAD [PITPNA_Y140], the phosphorylation enrichment was 1.39.

Each sequence was assayed against Hck (UniProt P08631) in the same assay as above.
Hck, sequence (P08631 whole entry, looked up): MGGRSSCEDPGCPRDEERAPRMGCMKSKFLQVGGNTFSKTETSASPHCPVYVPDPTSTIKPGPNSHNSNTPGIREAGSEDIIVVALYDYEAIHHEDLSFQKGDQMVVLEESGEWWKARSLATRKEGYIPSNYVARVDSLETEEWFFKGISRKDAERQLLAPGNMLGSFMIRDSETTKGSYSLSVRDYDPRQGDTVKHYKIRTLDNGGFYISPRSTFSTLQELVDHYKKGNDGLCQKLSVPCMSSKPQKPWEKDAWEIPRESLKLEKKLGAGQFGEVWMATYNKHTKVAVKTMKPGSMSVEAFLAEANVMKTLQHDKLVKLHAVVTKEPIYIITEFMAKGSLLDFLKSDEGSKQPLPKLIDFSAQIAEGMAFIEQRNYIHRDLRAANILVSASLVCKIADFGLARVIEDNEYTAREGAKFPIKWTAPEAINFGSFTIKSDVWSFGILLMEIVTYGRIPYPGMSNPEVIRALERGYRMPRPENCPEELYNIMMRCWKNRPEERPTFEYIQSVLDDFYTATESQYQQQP
ALKKPYGVLFK [RPF2_Y59_YF] was tested, and the phosphorylation enrichment was 0.632. FMFKVYSDPQP [FGFR1_Y280_C277Y_YF] showed a phosphorylation enrichment of 0.667. For ETKAFYPEEIS [HSPA1A_Y115], the phosphorylation enrichment was 0.506. In the case of SLNEGYAKDFD [FBP1_Y216_R218K], the phosphorylation enrichment is reported as 0.525. With AACQHYGVHTC [NR4A2_Y275_R278H] the phosphorylation enrichment was 0.443. Sequence SVMAEYGLFAA [VSX2_Y219_G223A_YF] has a phosphorylation enrichment of 2.76. Sequence CLAKMYYSAVE [CP_Y539_D544E] has a phosphorylation enrichment of 0.606. LLREWYVQDPF [SIX3_Y225_L226V_YF] was tested, and the phosphorylation enrichment was 0.522. TRLAQYDSNSK [BMX_Y216_S212R] showed a phosphorylation enrichment of 0.42. AAVPAYDKIRV [STXBP2_Y401] showed a phosphorylation enrichment of 1.36. For SVTCTYSRALN [TP53_Y126_P128R], the phosphorylation enrichment was 0.523. With VASSLYDILAR [GLB1_Y294] the phosphorylation enrichment was 8.2. VRTGIYHGGKP [PIK3CA_Y361_E365K] showed a phosphorylation enrichment of 0.713. DEEEEYEFMNR [ERBB3_Y1197_D1194E_YF] showed a phosphorylation enrichment of 0.522. For VIEFSYTSADG [DHCR7_Y382_C380Y_YF], the phosphorylation enrichment was 0.503. For RSACTYLAPHL [PLK3_Y615_S618P], the phosphorylation enrichment was 1.45. Work on EEGNPSYSSAR [MCCC2_Y520_Y520S] yielded a phosphorylation enrichment of 0.585. HAVVDYMRRQK [ATM_Y1915_L1910H] showed a phosphorylation enrichment of 0.694. YVSSFYHAFSG [ACTN4_Y265] was tested, and the phosphorylation enrichment was 2.82. With KPFRVYCDMNT [FGB_Y269_YF] the phosphorylation enrichment was 0.513. RGRSTCFWPRP [GAGE12J_Y9_Y9C_YF] showed a phosphorylation enrichment of 0.635. IAINKYGVSLI [MYO7A_Y2136] showed a phosphorylation enrichment of 0.497. DLAAQYTTVGR [SGSH_Y240] showed a phosphorylation enrichment of 0.799. For SVVVPYEPPEI [TP53_Y220_V225I], the phosphorylation enrichment was 0.616. For MTFQNYRQALF [FAM20C_Y279_G280R], the phosphorylation enrichment was 0.469. In the case of RRERPYGGGGG [FUS_Y526], the phosphorylation enrichment is reported as 0.414. CDFKKYGKGLR [ZNF445_Y433_Y428C_YF] gave a phosphorylation enrichment of 0.357. Sequence IFQASYFRRGD [LTK_Y676_R673Q_YF] has a phosphorylation enrichment of 0.517. Sequence MDYRSYPHEYG [RBM10_Y44_R46H] has a phosphorylation enrichment of 0.484. In the case of MKGEYYRYLAE [YWHAG_Y131_D129E], the phosphorylation enrichment is reported as 0.732. With CFTRKYTLPPG [HSPB1_Y142] the phosphorylation enrichment was 0.457. For YCRHNYGVGES [HLA-DRB1_Y112_V115G], the phosphorylation enrichment was 0.383. HVEAVYIDIAD [PITPNA_Y140] gave a phosphorylation enrichment of 0.837.

The sequences below were run against FGFR3 (UniProt P22607) in the same assay as above.
FGFR3, sequence (P22607 whole entry, looked up): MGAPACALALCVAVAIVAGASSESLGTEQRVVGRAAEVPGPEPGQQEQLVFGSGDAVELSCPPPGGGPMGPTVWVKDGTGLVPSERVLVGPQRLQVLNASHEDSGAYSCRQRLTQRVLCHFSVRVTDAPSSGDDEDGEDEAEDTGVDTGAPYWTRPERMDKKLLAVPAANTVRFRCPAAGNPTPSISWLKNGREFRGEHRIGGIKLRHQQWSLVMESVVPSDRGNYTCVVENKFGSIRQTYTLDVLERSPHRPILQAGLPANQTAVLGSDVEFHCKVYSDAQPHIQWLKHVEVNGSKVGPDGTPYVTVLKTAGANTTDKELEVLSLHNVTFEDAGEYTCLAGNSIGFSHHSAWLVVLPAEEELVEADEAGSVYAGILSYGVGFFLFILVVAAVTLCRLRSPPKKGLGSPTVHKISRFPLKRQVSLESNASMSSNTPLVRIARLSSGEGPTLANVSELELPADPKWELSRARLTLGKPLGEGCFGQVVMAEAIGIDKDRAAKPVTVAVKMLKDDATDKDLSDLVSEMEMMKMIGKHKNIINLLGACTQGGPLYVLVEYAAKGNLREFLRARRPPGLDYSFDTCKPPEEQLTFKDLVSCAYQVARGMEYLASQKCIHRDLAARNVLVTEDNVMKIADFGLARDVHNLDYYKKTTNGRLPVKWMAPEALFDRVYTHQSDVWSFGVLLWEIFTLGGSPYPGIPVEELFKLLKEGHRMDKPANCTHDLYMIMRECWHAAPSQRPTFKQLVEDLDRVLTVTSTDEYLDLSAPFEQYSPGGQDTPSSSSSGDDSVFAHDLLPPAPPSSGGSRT
ALKKPYGVLFK [RPF2_Y59_YF] showed a phosphorylation enrichment of 0.518. Work on FMFKVYSDPQP [FGFR1_Y280_C277Y_YF] yielded a phosphorylation enrichment of 1.08. Sequence ETKAFYPEEIS [HSPA1A_Y115] has a phosphorylation enrichment of 0.687. For SLNEGYAKDFD [FBP1_Y216_R218K], the phosphorylation enrichment was 0.716. Work on AACQHYGVHTC [NR4A2_Y275_R278H] yielded a phosphorylation enrichment of 0.585. SVMAEYGLFAA [VSX2_Y219_G223A_YF] gave a phosphorylation enrichment of 0.564. Work on CLAKMYYSAVE [CP_Y539_D544E] yielded a phosphorylation enrichment of 0.885. LLREWYVQDPF [SIX3_Y225_L226V_YF] showed a phosphorylation enrichment of 0.998. With TRLAQYDSNSK [BMX_Y216_S212R] the phosphorylation enrichment was 0.41. Sequence AAVPAYDKIRV [STXBP2_Y401] has a phosphorylation enrichment of 0.541. With SVTCTYSRALN [TP53_Y126_P128R] the phosphorylation enrichment was 0.796. Work on VASSLYDILAR [GLB1_Y294] yielded a phosphorylation enrichment of 0.557. VRTGIYHGGKP [PIK3CA_Y361_E365K] was tested, and the phosphorylation enrichment was 0.275. DEEEEYEFMNR [ERBB3_Y1197_D1194E_YF] gave a phosphorylation enrichment of 0.779. With VIEFSYTSADG [DHCR7_Y382_C380Y_YF] the phosphorylation enrichment was 0.652. With RSACTYLAPHL [PLK3_Y615_S618P] the phosphorylation enrichment was 0.71. EEGNPSYSSAR [MCCC2_Y520_Y520S] showed a phosphorylation enrichment of 0.554. In the case of HAVVDYMRRQK [ATM_Y1915_L1910H], the phosphorylation enrichment is reported as 1. In the case of YVSSFYHAFSG [ACTN4_Y265], the phosphorylation enrichment is reported as 2.32. KPFRVYCDMNT [FGB_Y269_YF] showed a phosphorylation enrichment of 0.773. RGRSTCFWPRP [GAGE12J_Y9_Y9C_YF] showed a phosphorylation enrichment of 0.928. IAINKYGVSLI [MYO7A_Y2136] was tested, and the phosphorylation enrichment was 0.594. Sequence DLAAQYTTVGR [SGSH_Y240] has a phosphorylation enrichment of 0.53. With SVVVPYEPPEI [TP53_Y220_V225I] the phosphorylation enrichment was 0.665. Sequence MTFQNYRQALF [FAM20C_Y279_G280R] has a phosphorylation enrichment of 0.57. Sequence RRERPYGGGGG [FUS_Y526] has a phosphorylation enrichment of 0.523. Work on CDFKKYGKGLR [ZNF445_Y433_Y428C_YF] yielded a phosphorylation enrichment of 0.549. With IFQASYFRRGD [LTK_Y676_R673Q_YF] the phosphorylation enrichment was 0.619. Sequence MDYRSYPHEYG [RBM10_Y44_R46H] has a phosphorylation enrichment of 0.632. MKGEYYRYLAE [YWHAG_Y131_D129E] gave a phosphorylation enrichment of 2.92. CFTRKYTLPPG [HSPB1_Y142] was tested, and the phosphorylation enrichment was 0.604. YCRHNYGVGES [HLA-DRB1_Y112_V115G] gave a phosphorylation enrichment of 0.534. Sequence HVEAVYIDIAD [PITPNA_Y140] has a phosphorylation enrichment of 2.96.
